Experimental data from US6475717.
Each block holds one molecule with its values, some of them ahead of it.

Legend:
[1] = molecular target: T1, human IL-7 (human) (UniProt P13232); experiment: control in IL-4R/Fc sandwich ELISA; hu IL-7 at 50 ng/ml
T1 sequence (looked up): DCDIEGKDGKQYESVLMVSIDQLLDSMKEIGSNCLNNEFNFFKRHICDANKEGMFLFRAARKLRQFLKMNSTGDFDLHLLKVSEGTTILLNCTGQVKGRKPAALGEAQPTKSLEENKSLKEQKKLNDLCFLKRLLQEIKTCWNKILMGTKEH

[2] = molecular target: T2, murine recombinant IL-4 (Immunex, Lot 2871-023) (murine) (UniProt P07750); experiment: control in IL-4R/Fc sandwich ELISA; mu IL-4 at 50 ng/ml
T2 sequence (looked up): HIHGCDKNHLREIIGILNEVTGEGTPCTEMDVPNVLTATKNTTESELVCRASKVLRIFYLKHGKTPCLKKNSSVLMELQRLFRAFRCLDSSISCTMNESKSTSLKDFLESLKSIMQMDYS

[3] = molecular target: human IL-2 (human) (UniProt P60568); experiment: control in IL-4R/Fc sandwich ELISA; hu IL-2 at 5000 IU/ml
Chain of UniProt P60568 (P60568 21-153 limits assumed): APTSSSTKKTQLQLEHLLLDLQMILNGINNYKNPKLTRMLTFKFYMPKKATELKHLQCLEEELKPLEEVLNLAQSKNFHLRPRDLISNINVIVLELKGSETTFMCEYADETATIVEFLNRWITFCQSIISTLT

[4] = molecular target: human IL-6 (human) (UniProt P05231); experiment: control in IL-4R/Fc sandwich ELISA; hu IL-6 at 5000 IU/ml
Chain of UniProt P05231 (P05231 30-212 limits assumed): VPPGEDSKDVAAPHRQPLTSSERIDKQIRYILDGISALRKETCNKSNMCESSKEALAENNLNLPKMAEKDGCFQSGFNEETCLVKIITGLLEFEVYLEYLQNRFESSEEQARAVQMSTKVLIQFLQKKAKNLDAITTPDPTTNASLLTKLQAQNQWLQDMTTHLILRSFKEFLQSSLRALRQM

[5] = molecular target: T3, human IL-1-alpha (human) (UniProt P01583); experiment: control in IL-4R/Fc sandwich ELISA; hu IL-1 α at 7.5 ng/ml
T3 sequence (looked up): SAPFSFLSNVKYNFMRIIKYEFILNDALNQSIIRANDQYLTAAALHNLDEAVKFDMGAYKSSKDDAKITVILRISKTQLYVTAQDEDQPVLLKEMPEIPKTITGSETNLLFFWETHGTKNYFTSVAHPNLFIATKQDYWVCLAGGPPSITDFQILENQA

[6] = molecular target: human IL-1-beta (human) (UniProt P01584); experiment: control in IL-4R/Fc sandwich ELISA; hu IL-1 β at 16.6 ng/ml
Chain of UniProt P01584 (P01584 117-269 limits assumed): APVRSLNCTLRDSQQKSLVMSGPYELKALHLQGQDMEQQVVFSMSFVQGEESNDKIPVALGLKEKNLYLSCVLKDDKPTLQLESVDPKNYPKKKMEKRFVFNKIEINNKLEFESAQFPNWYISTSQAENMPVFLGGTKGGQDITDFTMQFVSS

[7] = molecular target: human TNF-alpha (human) (UniProt P01375); experiment: control in IL-4R/Fc sandwich ELISA; hu-TNF α (Immunex) at 50 ng/ml
Chain of UniProt P01375 (P01375 77-233 limits assumed): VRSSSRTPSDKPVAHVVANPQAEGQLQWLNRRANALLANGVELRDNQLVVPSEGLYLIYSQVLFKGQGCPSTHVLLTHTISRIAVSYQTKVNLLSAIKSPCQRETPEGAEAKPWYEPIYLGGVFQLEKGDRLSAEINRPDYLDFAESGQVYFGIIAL

[8] = molecular target: human TNF-alpha (human) (UniProt P01375); experiment: control in IL-4R/Fc sandwich ELISA; hu-TNF α as printed (Genzyme B1089) at 50 ng/ml
[9] = molecular target: human recombinant IL-4 (Immunex, Lot 1898-022) (human) (UniProt P05112); experiment: control in mu IL-4R/Fc sandwich ELISA; hu IL-4 at 50 ng/ml
Chain of UniProt P05112 (P05112 25-153 limits assumed): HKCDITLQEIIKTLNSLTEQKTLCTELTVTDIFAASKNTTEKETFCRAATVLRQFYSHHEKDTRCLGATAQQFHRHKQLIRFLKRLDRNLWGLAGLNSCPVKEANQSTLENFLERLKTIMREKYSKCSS

[10] = molecular target: T4, murine IL-1-beta (murine) (UniProt P10749); experiment: control in mu IL-4R/Fc sandwich ELISA; mu IL-1 β at 10 ng/ml
T4 sequence (looked up): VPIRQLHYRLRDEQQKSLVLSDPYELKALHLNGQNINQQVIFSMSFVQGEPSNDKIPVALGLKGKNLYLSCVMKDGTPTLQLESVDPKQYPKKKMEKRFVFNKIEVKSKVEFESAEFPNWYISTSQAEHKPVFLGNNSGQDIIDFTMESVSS

[11] = molecular target: murine TNF-alpha (murine) (UniProt P06804); experiment: control in mu IL-4R/Fc sandwich ELISA; mu-TNF α at 100 ng/ml
Chain of UniProt P06804 (P06804 80-235 limits assumed): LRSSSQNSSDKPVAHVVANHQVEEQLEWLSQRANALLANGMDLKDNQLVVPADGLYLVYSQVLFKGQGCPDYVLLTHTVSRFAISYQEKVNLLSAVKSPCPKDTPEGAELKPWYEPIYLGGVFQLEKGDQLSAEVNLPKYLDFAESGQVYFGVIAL

[12] = molecular target: T5, murine IL-1-alpha (murine) (UniProt P01582); experiment: control in mu IL-4R/Fc sandwich ELISA; mu IL-1 α at 100 IU/ml
T5 sequence (looked up): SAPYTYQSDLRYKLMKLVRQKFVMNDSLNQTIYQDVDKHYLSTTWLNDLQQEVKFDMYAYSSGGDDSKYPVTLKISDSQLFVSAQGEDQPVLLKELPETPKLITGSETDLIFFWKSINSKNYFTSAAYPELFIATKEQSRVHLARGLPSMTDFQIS

concentration determined from the extinction [1]: < 31 pg/mL | concentration determined from the extinction [2]: < 31 pg/mL | concentration determined from the extinction [3]: < 31 pg/mL | concentration determined from the extinction [4]: < 31 pg/mL | concentration determined from the extinction [5]: < 31 pg/mL | concentration determined from the extinction [6]: < 31 pg/mL | concentration determined from the extinction [7]: < 31 pg/mL | concentration determined from the extinction [8]: < 31 pg/mL
Molecule: human IL-4 receptor/immunoglobulin Fc fusion protein (from UniProt P24394 26-232)

concentration determined from the extinction [9]: < 31 pg/mL | concentration determined from the extinction [10]: < 31 pg/mL | concentration determined from the extinction [11]: < 31 pg/mL | concentration determined from the extinction [12]: < 31 pg/mL
B1: murine IL-4 receptor/immunoglobulin Fc fusion protein (Fc fusion, UniProt P16382 26-233, looked up, not shown: small tags and cut ends)
chain: IKVLGEPTCFSDYIRTSTCEWFLDSAVDCSSQLCLHYRLMFFEFSENLTCIPRNSASTVCVCHMEMNRPVQSDRYQMELWAEHRQLWQGSFSPSGNVKPLAPDNLTLHTNVSDEWLLTWNNLYPSNNLLYKDLISMVNISREDNPAEFIVYNVTYKEPRLSFPINILMSGVYYTARVRVRSQILTGTWSEWSPSITWYNHFQLPLIQR
